Measured values from publication PMC7614096, “Head-to-tail polymerization by VEL proteins underpins cold-induced Polycomb silencing in flowering control” (Cell Reports, 2022).
Where a chain is given by its changes, count along the chain named. Numbers in names are those of the source.

T1: 6xHisLip-VIN3VEL RR>AD (ITC) (Arabidopsis thaliana, UniProt Q9FIE3 529-603, R554A | R556D)
T1 construct: VEL domain of VIN3, Arabidopsis thaliana, Q9FIE3, R554A R556D; residues 529-603 by the methods' rule for pLipK-VIN3VEL ('unless specified otherwise'); also called VIN3VEL head mutant; source: E. coli BL21(DE3) pRARE2, purified (Ni-NTA, SEC); not shown: 6xHis, N-terminal, kept; lipoyl (Lip) solubility tag, N-terminal, kept
T1 sequence (looked up): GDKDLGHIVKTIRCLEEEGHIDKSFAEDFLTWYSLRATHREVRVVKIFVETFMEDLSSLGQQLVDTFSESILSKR

B1: Lip-VIN3VEL (residues 500–603), wild type (domain or fragment, Arabidopsis thaliana, UniProt Q9FIE3 500-603, looked up)
chain: GKQGGNKRFKSRTVSLNEKPEINNAANGVGDKDLGHIVKTIRCLEEEGHIDKSFRERFLTWYSLRATHREVRVVKIFVETFMEDLSSLGQQLVDTFSESILSKR
notes: VEL domain of VIN3, Arabidopsis thaliana, Q9FIE3, residues 500-603; also called WT domain; source: E. coli BL21(DE3) pRARE2, purified (Ni-NTA, SEC); not shown: lipoyl (Lip) solubility tag, N-terminal, kept
B2: Lip-VEL1VEL (residues 589–692), wild type (domain or fragment, Arabidopsis thaliana, UniProt Q9SUM4 589-692, looked up)
chain: SDEIKNRQARIEISMKDNCNNGDHSANGGTESGLEHCVKIIRQLECSGHIDKNFRQKFLTWYSLRATSQEIRVVKIFIDTFIDDPMALAEQLIDTFDDRVSIKR
notes: VEL domain of VEL1, Arabidopsis thaliana, Q9SUM4, residues 589-692; source: E. coli BL21(DE3) pRARE2, purified (Ni-NTA, SEC); not shown: lipoyl (Lip) solubility tag, N-terminal, kept
B3: 6xHisLip-VIN3VEL I575D (ITC) (domain or fragment, Arabidopsis thaliana, UniProt Q9FIE3 529-603, looked up)
chain: T1 sequence (looked up) with A26R, D28R, I47D
notes: VEL domain of VIN3, Arabidopsis thaliana, Q9FIE3, I575D; residues 529-603 by the methods' rule for pLipK-VIN3VEL ('unless specified otherwise'); also called VIN3VEL tail mutant; source: E. coli BL21(DE3) pRARE2, purified (Ni-NTA, SEC); not shown: 6xHis, N-terminal, kept; lipoyl (Lip) solubility tag, N-terminal, kept
B4: VIN3VEL I575D, untagged (domain or fragment, Arabidopsis thaliana, UniProt Q9FIE3 529-603, looked up)
chain: T1 sequence (looked up) with A26R, D28R, I47D
modifications: selenomethionine (labelling for phasing, crystals)
notes: VEL domain of VIN3, Arabidopsis thaliana, Q9FIE3, I575D; also called VIN3 I575D; VIN3VEL tail mutant; source: E. coli BL21(DE3) pRARE2, purified (Ni-NTA, TEV cleavage, SEC); not shown: 6xHis, N-terminal, cleaved
B5: VIN3VEL RR>AD (R554A R556D), residues 529–603, untagged (domain or fragment, Arabidopsis thaliana, UniProt Q9FIE3 529-603, looked up)
chain: T1 sequence (looked up)
modifications: selenomethionine (labelling for phasing, crystals); 13C-15N double-labeled (NMR)
notes: VEL domain of VIN3, Arabidopsis thaliana, Q9FIE3, residues 529-603, R554A R556D; Used for the crystal structure 7O6U and, as 'untagged RR>AD', for NMR; also called VIN3 R554A R556D; VIN3VEL head mutant; source: E. coli BL21(DE3) pRARE2, purified (Ni-NTA, TEV cleavage, SEC); not shown: 6xHis, N-terminal, cleaved
B6: VEL1VEL I664D, residues 616–692, untagged (domain or fragment, Arabidopsis thaliana, UniProt Q9SUM4 616-692, looked up)
chain: GGTESGLEHCVKIIRQLECSGHIDKNFRQKFLTWYSLRATSQEIRVVKDFIDTFIDDPMALAEQLIDTFDDRVSIKR
modifications: selenomethionine (labelling for phasing)
notes: VEL domain of VEL1, Arabidopsis thaliana, Q9SUM4, residues 616-692, I664D; also called VEL1 I664D; source: E. coli BL21(DE3) pRARE2, purified (Ni-NTA, TEV cleavage, SEC); not shown: 6xHis, N-terminal, cleaved

Key:
[1] = biological target: the molecule itself; test: SEC-MALS; Superdex200 10/300 GL in PBS with 1 mM DTT; increasing protein concentrations (2 mg/mL unless stated otherwise); self-association
[2] = biological target: T1, 6xHisLip-VIN3VEL RR>AD (ITC); test: ITC; 25°C; 1 mM 6xHisLip-VIN3VEL I575D injected into 100 μM 6xHisLip-VIN3VEL RR>AD; 25 mM Tris pH 7.4, 200 mM NaCl, 0.5 mM DTT, 0.06% NaN3; head-to-tail interface between a head mutant and a tail mutant; details: both partners purified
[3] = biological target: B5; test: NMR titration; 300 μM 13C-15N VEL RR>AD with 100 μM unlabeled VEL I575D; peak heights in 1H-15N fast-HSQC spectra; 25 mM phosphate pH 6.7, 150 mM NaCl, 283 K; details: both partners purified
[4] = biological target: the molecule itself; test: crystal structure; untagged VEL domains bearing polymerization-deficient point mutations, 4–25 mg/mL, sitting-drop vapor diffusion at 18°C; SAD with selenomethionine

| Binder | stoichiometry N [1] | binding result [4] | other results |
| --- | --- | --- | --- |
| B1 | ~9 -mer |  |  |
| B2 | > 20 -mer |  |  |
| B3 |  |  | Kd [2]: 1160 nM |
| B4 |  | binds | binding result [3]: binds |
| B5 |  | binds |  |
| B6 |  | binds |  |
